According to patent US6103888A, “Mammalian cationic proteins having lipopolysaccharide binding and anti-coagulant activity” (priority 1999, dated 2000):
Where “and” joins values, the source holds several entries; their conditions need not be identical. Equal entries are not always repeated.

B1: CAP18: cationic protein from rabbit granulocytes, 16.6 kD, SEQ ID NO:4 (protein)
chain: METHKHGPSLAWWSLLLLLLGLLMPPAIAQDLTYREAVLRAVDAFNQQSSEANLYRLLSMDPQQLEDAKPYTPQPVSFTVKETECPRTTWKLPEQCDFKEDGLVKRCVGTVTRYQAWDSFDIRCNRAQESPEPTGLRKRLRKFRNKIKEKLKKIGQKIQGLLPKLAPRTDY
B2: human CAP18: human form of CAP18, amino acid sequence SEQ ID NO:2 (protein)
chain: MKTQRDGHSLGRWSLVLLLLGLVMPLAIIAQVLSYKEAVLRAIDGINQRSSDANLYRLLDLDPRPTMDGDPDTPKPVSFTVKETVCPRTTQQSPEDCDFKKDGLVKRCMGTVTLNQARGSFDISCDKDNKRFALLGDFFRKSKEKIGKEFKRIVQRIKDFLRNLVPRTES

Tests used:
human mononuclear cells = assay: LPS-induced tissue factor by human mononuclear cells (clotting assay); type: cell-based
Procedure: Human mononuclear cells were separated from citrated peripheral blood by centrifugation over Sodium-metrizoate-Ficoll (lymphocyte Separation Medium, Japan Antibody Institute, Gumma). The resulting mixed mononuclear cell suspension was washed 3 times with RPMI 1640 media. Cell suspension (1×10^6 /ml) was stimulated with LPS for 16 to 18 hr.
Veronal buffered saline (VBS) was added to the cell pellet, lysed by 3 cycles of freeze/thaw and sonicated for 10 sec with a hand-held sonicator microbe (Handy Sonic, model UR-20P, Tomy Seiko LTD, Tokyo). Tissue factor activity was tested in modified unactivated partial thromboplastin time (7). One tenth ml of cell lysate (1×10^6 /ml) was preincubated with mouse plasma at 37° C. for 3 min. Then 0.1 ml of 25 mM-CaCl2 which contains phospholipid was added to the mixture and clotting time was measured using a fibrometer (Bio Quest Division, Becton Dickinson, Cokeysville, USA). A standard curve obtained from serial two-fold dilutions of rabbit brain thromboplastic (Simplastin, Ono Pharmaceutical Co.) was used to transpose tissue factor activity into arbitrary tissue factor units (1 μg/ml) suspension of rabbit brain was assigned a value of 1,000 units).
The mean tissue factor units+standard error was determined from three to four samples. Student's t test for unpair data was used to determine the statistically significant differences. A two-tailed P value of <0.05 was considered significant. […]

[1] = test system: galactosamine-sensitized mice; type: in vivo; settings: CAP18 40 μg IP alone, no galactosamine, no Re-LPS; groups of 10 mice
Text: Galactosamine sensitizes mice to the lethal effects of LPS by a factor 1000 or more. CAP18 and LPS were mixed and injected IP into sensitized mice. CAP18 can neutralize the lethal effects of LPS in this model of endotoxemia (see Table 8).

cysteine protease = assay: Cysteine protease activity of purified human CAP18; type: biochemical
[2] = LPS 0.1 μg/ml, peptide HA units: RNIP 2, CAP-18 1, HP-1 4, HP-2 2

| Molecule | Inhibition (%) (human mononuclear cells; [2]) | Tissue Factor Units, value in parentheses (ratio to unstimulated control) (human mononuclear cells; [2]) | Δ Units (%) (human mononuclear cells; LPS 0.1 μg/ml, relative to LPS alone (100)) | Tissue Factor Units, value in parentheses (ratio to unstimulated control) (human mononuclear cells; no LPS, peptide alone) | Tissue factor units (human mononuclear cells; no LPS, peptide alone) | Δ Units (human mononuclear cells; no LPS, peptide alone) [Units] | Lethality (%) [1] [%] | cysteine protease activity (in words) (cysteine protease) |
| --- | --- | --- | --- | --- | --- | --- | --- | --- |
| B1 | 30% and 35% | 9.9 | 70% and 65% | 1.2 | 583 ± 178 Units ×10^3 /3.6 × 10^4 cells | 235 | 0 |  |
| B2 |  |  |  |  |  |  |  | significant cysteine protease activity |
